Assay results: paper PMC4108507 (Journal of immunology (Baltimore, Md. : 1950), 2014)

Target: HA-DHX15, full-length recombinant protein (murine, UniProt O35286 1-795)
Test: pull-down

Chain of HA-DHX15, full-length recombinant protein (O35286 whole entry): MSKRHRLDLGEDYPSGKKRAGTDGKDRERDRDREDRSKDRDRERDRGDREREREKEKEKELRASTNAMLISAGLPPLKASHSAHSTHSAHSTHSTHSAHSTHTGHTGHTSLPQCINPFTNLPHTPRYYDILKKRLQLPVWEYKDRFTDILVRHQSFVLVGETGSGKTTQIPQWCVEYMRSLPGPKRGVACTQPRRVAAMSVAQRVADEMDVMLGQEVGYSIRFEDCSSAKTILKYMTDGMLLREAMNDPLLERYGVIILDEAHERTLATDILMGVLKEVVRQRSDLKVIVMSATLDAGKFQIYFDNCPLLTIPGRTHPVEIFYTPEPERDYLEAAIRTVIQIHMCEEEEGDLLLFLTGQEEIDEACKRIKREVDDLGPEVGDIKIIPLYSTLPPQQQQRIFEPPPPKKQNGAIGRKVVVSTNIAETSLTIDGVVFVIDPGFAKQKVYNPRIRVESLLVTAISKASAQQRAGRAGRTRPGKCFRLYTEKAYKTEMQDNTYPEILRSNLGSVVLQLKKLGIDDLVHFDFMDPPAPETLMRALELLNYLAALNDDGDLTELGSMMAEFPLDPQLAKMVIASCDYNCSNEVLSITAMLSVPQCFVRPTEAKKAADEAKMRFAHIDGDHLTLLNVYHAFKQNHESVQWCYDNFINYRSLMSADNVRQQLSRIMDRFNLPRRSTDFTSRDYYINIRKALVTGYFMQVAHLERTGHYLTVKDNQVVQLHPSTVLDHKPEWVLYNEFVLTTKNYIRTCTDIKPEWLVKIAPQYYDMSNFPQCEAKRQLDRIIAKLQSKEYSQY

B1: Myc-MAVS, full-length recombinant protein (natural protein, murine, UniProt Q8VCF0 1-503, looked up)
chain: MTFAEDKTYKYIRDNHSKFCCVDVLEILPYLSCLTASDQDRLRASYRQIGNRDTLWGLFNNLQRRPGWVEVFIRALQICELPGLADQVTRVYQSYLPPGTSLRSLEPLQLPDFPAAVSGPSAFAPGHNIPDHGLRETPSCPKPVQDTQPPESPVENSEQLLQTNSGAVARMSGGSLIPSPNQQALSPQPSREHQEQEPELGGAHAANVASVPIATYGPVSPTVSFQPLPRTALRTNLLSGVTVSALSADTSLSSSSTGSAFAKGAGDQAKAATCFSTTLTNSVTTSSVPSPRLVPVKTMSSKLPLSSKSTAAMTSTVLTNTAPSKLPSNSVYAGTVPSRVPASVAKAPANTIPPERNSKQAKETPEGPATKVTTGGNQTGPNSSIRSLHSGPEMSKPGVLVSQLDEPFSACSVDLAISPSSSLVSEPNHGPEENEYSSFRIQVDESPSADLLGSPEPLATQQPQEEEEHCASSMPWAKWLGATSALLAVFLAVMLYRSRRLAQ
Question: Does B1 bind?
Answer: Result: binds
